This data set has as its target TcpK (Clostridium perfringens (plasmid pCW3), UniProt Q1PLI2 1-102). Kind of data set: fluorescence polarization; SPR: 10 mM HEPES pH 7.4, 200 mM NaCl, 3 mM EDTA, 0.05% Tween 20, 20 C; […]. The note with it: protein: recombinant; tags: N-terminal His6-TEV, cleaved; chain copies: 2; label: 5' Alexa488; blunt. (Fluorescence polarisation rises when a labelled molecule tumbles more slowly, as on binding a larger partner.)

B1: oriTmin23 Alexa488 (dsDNA)
DNA 1: AAGGAACTTTACAGGGAACTTTA
DNA 2: TAAAGTTCCCTGTAAAGTTCCTT
The term Kd denotes a measure of binding affinity in units of concentration. B1: the dissociation constant Kd stood at 590 nM.

(Values after PMC6137059.)
